Data reported in paper PMC9058472.

Molecular target: polymerized microtubules (UniProt P68369)

- microtubule binding against WT α-TAT1: 65%
Substance: GFP-α-TAT1^DC1 (α-TAT1 with Cluster 1 deleted) (from UniProt Q8K341 1-314) (domain or fragment)
